# Assay results taken from publication PMC6995525, “Structure of the PUB Domain from Ubiquitin Regulatory X Domain Protein 1 (UBXD1) and Its Interaction with the p97 AAA+ ATPase” (Biomolecules, 2019).
# Substitutions are numbered along the chain they refer to. No end group written: not given here.
# T1: UBXD1-PUB (150–264) Y181F (UniProt Q9BZV1 150-264, Y181F)
# T1 construct: UBXD1 PUB domain construct, residues 150-264, point mutant; source: E. coli Rosetta2, purified (Ni-NTA, thrombin cleavage of the tag, SEC); not shown: His6, N-terminal, cleaved
# T1 sequence (looked up): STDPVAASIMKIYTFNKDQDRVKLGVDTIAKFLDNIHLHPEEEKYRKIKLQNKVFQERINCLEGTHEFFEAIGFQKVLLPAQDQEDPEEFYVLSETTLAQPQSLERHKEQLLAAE
# T2: UBXD1-PUB (150–264) N184D (UniProt Q9BZV1 150-264, N184D)
# T2 construct: UBXD1 PUB domain construct, residues 150-264, point mutant; source: E. coli Rosetta2, purified (Ni-NTA, thrombin cleavage of the tag, SEC); not shown: His6, N-terminal, cleaved
# T2 sequence (looked up): T1 sequence (looked up) with F32Y, N35D
# T3: UBXD1-PUB (150–264) K193E (UniProt Q9BZV1 150-264, K193E)
# T3 construct: UBXD1 PUB domain construct, residues 150-264, point mutant; source: E. coli Rosetta2, purified (Ni-NTA, thrombin cleavage of the tag, SEC); not shown: His6, N-terminal, cleaved
# T3 sequence (looked up): T1 sequence (looked up) with F32Y, K44E
# T4: UBXD1-PUB (150–264) Q200A (UniProt Q9BZV1 150-264, Q200A)
# T4 construct: UBXD1 PUB domain construct, residues 150-264, point mutant; source: E. coli Rosetta2, purified (Ni-NTA, thrombin cleavage of the tag, SEC); not shown: His6, N-terminal, cleaved
# T4 sequence (looked up): T1 sequence (looked up) with F32Y, Q51A
# T5: UBXD1-PUB (150–264) K198E (UniProt Q9BZV1 150-264, K198E)
# T5 construct: UBXD1 PUB domain construct, residues 150-264, point mutant; source: E. coli Rosetta2, purified (Ni-NTA, thrombin cleavage of the tag, SEC); not shown: His6, N-terminal, cleaved
# T5 sequence (looked up): T1 sequence (looked up) with F32Y, K49E
# T6: UBXD1-PUB (150–264) Y194A (UniProt Q9BZV1 150-264, Y194A)
# T6 construct: UBXD1 PUB domain construct, residues 150-264, point mutant; source: E. coli Rosetta2, purified (Ni-NTA, thrombin cleavage of the tag, SEC); not shown: His6, N-terminal, cleaved
# T6 sequence (looked up): T1 sequence (looked up) with F32Y, Y45A
# T7: UBXD1-PUB (150–264) Y194F (UniProt Q9BZV1 150-264, Y194F)
# T7 construct: UBXD1 PUB domain construct, residues 150-264, point mutant; source: E. coli Rosetta2, purified (Ni-NTA, thrombin cleavage of the tag, SEC); not shown: His6, N-terminal, cleaved
# T7 sequence (looked up): T1 sequence (looked up) with F32Y, Y45F
# T8: UBXD1-PUB (150–264) R207E (UniProt Q9BZV1 150-264, R207E)
# T8 construct: UBXD1 PUB domain construct, residues 150-264, point mutant; source: E. coli Rosetta2, purified (Ni-NTA, thrombin cleavage of the tag, SEC); not shown: His6, N-terminal, cleaved
# T8 sequence (looked up): T1 sequence (looked up) with F32Y, R58E
# T9: UBXD1-PUB (150–264) N201A (UniProt Q9BZV1 150-264, N201A)
# T9 construct: UBXD1 PUB domain construct, residues 150-264, point mutant; source: E. coli Rosetta2, purified (Ni-NTA, thrombin cleavage of the tag, SEC); not shown: His6, N-terminal, cleaved
# T9 sequence (looked up): T1 sequence (looked up) with F32Y, N52A
# T10: UBXD1-PUB (150–264) N184A (UniProt Q9BZV1 150-264, N184A)
# T10 construct: UBXD1 PUB domain construct, residues 150-264, point mutant; source: E. coli Rosetta2, purified (Ni-NTA, thrombin cleavage of the tag, SEC); not shown: His6, N-terminal, cleaved
# T10 sequence (looked up): T1 sequence (looked up) with F32Y, N35A
# T11: UBXD1-PUB (150–264) Y181A (UniProt Q9BZV1 150-264, Y181A)
# T11 construct: UBXD1 PUB domain construct, residues 150-264, point mutant; source: E. coli Rosetta2, purified (Ni-NTA, thrombin cleavage of the tag, SEC); not shown: His6, N-terminal, cleaved
# T11 sequence (looked up): T1 sequence (looked up) with F32A
# T12: UBXD1-PUB (150–264) E206R (UniProt Q9BZV1 150-264, E206R)
# T12 construct: UBXD1 PUB domain construct, residues 150-264, point mutant; source: E. coli Rosetta2, purified (Ni-NTA, thrombin cleavage of the tag, SEC); not shown: His6, N-terminal, cleaved
# T12 sequence (looked up): T1 sequence (looked up) with F32Y, E57R
# T13: UBXD1-PUB (150–264) N201D (UniProt Q9BZV1 150-264, N201D)
# T13 construct: UBXD1 PUB domain construct, residues 150-264, point mutant; source: E. coli Rosetta2, purified (Ni-NTA, thrombin cleavage of the tag, SEC); not shown: His6, N-terminal, cleaved
# T13 sequence (looked up): T1 sequence (looked up) with F32Y, N52D
# T14: UBXD1-PUB (150–264) V203A (UniProt Q9BZV1 150-264, V203A)
# T14 construct: UBXD1 PUB domain construct, residues 150-264, point mutant; source: E. coli Rosetta2, purified (Ni-NTA, thrombin cleavage of the tag, SEC); not shown: His6, N-terminal, cleaved
# T14 sequence (looked up): T1 sequence (looked up) with F32Y, V54A
# B1: p97-C10 peptide (unlabeled) (peptide)
# peptide: TEDNDDDLYG
# notes: also called p97-PIM; p97-C10 PIM peptide; source: synthetic peptide, bought: Caslo ApS (Denmark)
# B2: UBXD1-PUB (150–264) (domain or fragment, UniProt Q9BZV1 150-264, looked up)
# chain: T1 sequence (looked up) with F32Y
# notes: UBXD1 (ubiquitin regulatory X domain protein 1), PUB domain construct, residues 150-264; Cloned into pET28a (NdeI/HindIII); a few vector residues probably remain after thrombin cleavage (surmised); Theoretical MW 13.80 kDa; 15N- or 13C,15N-labelled for NMR; also called UBXD1-PUB wt; wild type (wt); source: E. coli Rosetta2, purified (Ni-NTA, thrombin cleavage of the tag, SEC); not shown: His6, …
# B3: 5,6-FAM-labeled p97-C10 peptide (peptide)
# peptide: TEDNDDDLYG
# modifications: also: 5,6-FAM label, position not given here
# notes: source: synthetic peptide, bought: Caslo ApS (Denmark)
# What was measured:
# Details in all cases: both partners purified
# UBXD1-PUB (150–264) [1] = biological target: B2; test: ITC; UBXD1-PUB (100 µM) titrated with 1 mM p97-C10 peptide; 50 mM NaKPi pH 6.5, 25 °C; single-site model; triplicate, parameters averaged
# full-length p97 = biological target: T15, full-length p97 (UniProt P55072 1-806); test: fluorescence polarisation; fluorescence anisotropy of UBXD1-PUB wt with full length p97; which partner was labeled and titrated is not told
# T15 construct: AAA+ ATPase p97 / valosin-containing protein (VCP) / Cdc48, full length; Cloning, tags and purification of p97-fl are not described; the methods say only that 'all proteins were expressed in Escherichia coli Rosetta2' and purified by Ni-NTA and SEC after thrombin cleavage; also called p97-fl; VCP
# T15 sequence (P55072 whole entry): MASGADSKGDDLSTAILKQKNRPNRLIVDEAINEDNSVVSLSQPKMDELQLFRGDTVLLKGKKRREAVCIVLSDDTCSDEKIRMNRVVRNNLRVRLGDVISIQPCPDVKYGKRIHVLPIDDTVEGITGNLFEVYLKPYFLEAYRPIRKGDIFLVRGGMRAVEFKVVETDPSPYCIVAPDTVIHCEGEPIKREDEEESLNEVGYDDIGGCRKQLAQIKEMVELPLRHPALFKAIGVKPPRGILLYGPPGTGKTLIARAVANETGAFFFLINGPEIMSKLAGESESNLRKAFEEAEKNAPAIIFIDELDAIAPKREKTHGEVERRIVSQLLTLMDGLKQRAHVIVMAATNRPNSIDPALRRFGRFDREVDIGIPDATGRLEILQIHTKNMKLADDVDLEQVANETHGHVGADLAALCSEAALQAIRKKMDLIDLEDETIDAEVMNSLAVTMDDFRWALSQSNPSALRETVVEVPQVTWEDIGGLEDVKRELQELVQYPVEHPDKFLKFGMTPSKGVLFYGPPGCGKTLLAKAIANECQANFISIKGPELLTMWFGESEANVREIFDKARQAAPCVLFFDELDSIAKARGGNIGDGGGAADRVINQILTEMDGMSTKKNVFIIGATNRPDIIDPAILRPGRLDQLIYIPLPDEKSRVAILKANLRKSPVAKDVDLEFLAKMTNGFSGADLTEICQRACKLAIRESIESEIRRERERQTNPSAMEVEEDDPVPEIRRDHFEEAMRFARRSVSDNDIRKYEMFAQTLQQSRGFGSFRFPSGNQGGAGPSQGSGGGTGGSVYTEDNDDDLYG
# [2] = biological target: T1, UBXD1-PUB (150–264) Y181F; test: fluorescence polarisation; fluorescence anisotropy; PUB constructs titrated to 100 nM 5,6-FAM labeled p97-C10 peptide; 50 mM NaKPi pH 6.5, 25 °C; triplicate; one-site quadratic fit
# [3] = biological target: T2, UBXD1-PUB (150–264) N184D; test: as above
# [4] = biological target: T3, UBXD1-PUB (150–264) K193E; test: as above
# UBXD1-PUB (150–264) [5] = biological target: B2; test: as above
# [6] = biological target: T4, UBXD1-PUB (150–264) Q200A; test: as above
# [7] = biological target: T5, UBXD1-PUB (150–264) K198E; test: as above
# [8] = biological target: T6, UBXD1-PUB (150–264) Y194A; test: as above
# [9] = biological target: T7, UBXD1-PUB (150–264) Y194F; test: as above
# [10] = biological target: T8, UBXD1-PUB (150–264) R207E; test: as above
# [11] = biological target: T9, UBXD1-PUB (150–264) N201A; test: as above
# [12] = biological target: T10, UBXD1-PUB (150–264) N184A; test: as above
# [13] = biological target: T11, UBXD1-PUB (150–264) Y181A; test: as above
# [14] = biological target: T12, UBXD1-PUB (150–264) E206R; test: as above
# [15] = biological target: T13, UBXD1-PUB (150–264) N201D; test: as above
# [16] = biological target: T14, UBXD1-PUB (150–264) V203A; test: as above
binder,measurement,setting,value
B1,Kd,UBXD1-PUB (150–264) [1],15 ± 5 µM
same,dH,UBXD1-PUB (150–264) [1],-3.25 ± 0.483 kcal/mol
same,stoichiometry N,UBXD1-PUB (150–264) [1],1.1 ± 0.2
B2,Kd,full-length p97,8.4 µM
B3,Kd,[2],28.4 µM
same,Kd,[3],80 µM
same,Kd,[4],17.7 µM
same,Kd,UBXD1-PUB (150–264) [5],13.8 µM
same,Kd,[6],8.3 µM
same,Kd,[7],49.3 µM
same,Kd,[8],53 µM
same,Kd,[9],141 µM
same,Kd,[10],88 µM
same,Kd,[11],64.1 µM
same,Kd,[12],28.7 µM
same,Kd,[13],111 µM
same,Kd,[14],39.4 µM
same,Kd,[15],280 µM
same,Kd,[16],25.3 µM
